Data from patent publication US20090130120A1 (published 2009).

Tests used:
[1] = target: F protein on live RSV virus (strain not stated) (respiratory syncytial virus (RSV)); test: cell-based or functional assay
[2] = target: T1, RSV G protein of group A strain (Ga protein) (respiratory syncytial virus (RSV), …, UniProt P03423 1-298); test: Biacore, antibody on chip, recombinant Ga in flow
T1 construct: also called RSV-Ga; RSV-GA2 protein
T1 sequence: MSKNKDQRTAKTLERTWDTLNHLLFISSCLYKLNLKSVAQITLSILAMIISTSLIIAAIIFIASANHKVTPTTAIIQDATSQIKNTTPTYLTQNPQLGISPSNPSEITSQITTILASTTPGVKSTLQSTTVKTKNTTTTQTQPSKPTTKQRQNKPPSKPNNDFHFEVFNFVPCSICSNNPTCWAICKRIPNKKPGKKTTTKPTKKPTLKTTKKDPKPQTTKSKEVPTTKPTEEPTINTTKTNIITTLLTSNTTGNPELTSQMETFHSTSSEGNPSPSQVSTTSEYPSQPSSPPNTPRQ

[3] = target: T2, 12-mer Ga derived peptide HFEVFNFVPCSI; test: array of overlapping 12-mer peptides, 1 ug/ml antibody, chemiluminescence
T2 construct: also called (169) HFEVFNFVPCSI (176)
T2 peptide: HFEVFNFVPCSI

## Synagis® (palivizumab) (antibody)
[1]
  IC50, plaque assay for neutralization of RSV on HEp2 cells with rabbit complement: 300 ng/mL
  affinity according to the plaque neutralization assay: 2 nM

B1: 10C6 (antibody, V domains shown)
VH: QVQLVESGGGVVQPGRSLRLSCEASGFTFSGYAMHWVRQAPAKGLEWVAVISFDGSNNYYADSVKGRFTISRDNSKNMLFLQMNSLRAEDTAVYYCVRPDVIAVAGTALSNPFDLWGLGTMVTVSS
VL: EIVMTQSPATLSVSPGERALSCRASQSVRSNLVWYQQKPGQAPRLLIFGASTRATGIPARFSGSGSGTEFTLTISSLQSEDFALYFCQQNNNWPPTFGQGTRLEIK
[2]
  Kd: 0.055 nM

B2: murine monoclonal antibody 131-2G (antibody, V domains shown)
VH: EVQLQQSGPELVKPGTSVKISCKASGYSFTGFTMNWVKQSHGKNLEWFGLINPFNGNTGYNQKFKGKATLTVDKSSSTAFMELLSLTSEDSAVYYCARSGKSYDYEAWFTYWGQGTLVTVSA
VL: DIVMTQTTLSLPVSLGNQASISCRSSQTIVHTNGNTYLEWYLQKPGQSPKLLIYKVSNRFSGVPDRFSGSGSGTDFILNISRVEAEDLGVYYCFQGSHVPFTFGSGTKLEIKR
notes: Only variable regions are printed
[3]
  binding result: binds
